Experimental data taken from US8110672B2, “Promoter engineering and genetic control” (priority 2005, dated 2012).

Key:
CAT = experiment: Chloramphenicol resistance of pZE-promoter-cat constructs (MIC on LB agar); assay type: cell-based, E. coli; conditions: lowest chloramphenicol concentration that inhibited growth; promoter driving cat, LB agar with kanamycin, overnight 37° C.
Method: pZE-promoter-cat plasmids were created by PCR of the CAT gene from pACYC184 using primers CAT_Sense_MluI: […] (SEQ ID NO: 6) and CAT_Anti_KpnI: […] (SEQ ID NO: 7) and ligated into the proper pZE-promoter construct which was previously digested by KpnI and MluI. Exponential-phase cultures grown in LB supplemented with kanamycin were plated onto LB agar supplemented with kanamycin and various concentrations of chloramphenicol ranging from 0 to 500 μg/ml. After overnight incubation at 37° C., the lowest concentration of chloramphenicol that inhibited the growth of a clone was recorded.
To verify the constitutive nature of all the promoters, each was redeployed into a new construct driving the reporter gene cat. Cultures bearing these constructs were assayed for resistance to chloramphenicol on a rich, solid-phase medium. […] Moreover, these conditions test the promoter library in contrasting medium and growth environments (liquid minimal medium vs. solid complex medium) further underscoring the constitutive nature of the library promoters.

gfp transcript = experiment: Transcriptional analysis: quantitative RT-PCR of the gfp transcript; assay type: cell-based, E. coli; conditions: cultures grown 3 hours, relative level
Method: Cultures inoculated as previously were grown for 3 hours and the total RNA was extracted from a 1.5 mL sample with a commercial kit (RNEasy, Qiagen Corp). All samples were diluted to a final concentration of 20 μg/mL and stored at −20° C. A commercial kit for RT-PCR (iScript One-Step RT-PCR Kit with SYBR Green, Bio-Rad) was used with a CCD-equipped thermal cycler (iCycler, Bio-Rad) for RT-PCR of the gfp transcript. Primers (sense-[…] (SEQ ID NO: 4) and antisense-[…] (SEQ ID NO: 5)) were used at a final concentration of 100 nM and 20 ng of RNA was used as template in each 50 μL reaction. We performed duplicate cultures for each clone and duplicate extractions for each culture. The threshold cycles for each sample were calculated from the fluorescence data with proprietary software (Bio-Rad, Inc).
To characterize the promoter library directly at the transcriptional level, the relative mRNA levels of gfp transcripts in the above cultures were determined by quantitative RT-PCR. The high correlation between fluorescence and mRNA level (FIG. 4) confirmed that expression was transcriptionally controlled. The data was obtained where GFP fluorescence levels were modulated by the level of oxygen. In this way, selection for promoters, which had differential expression in high and low oxygen conditions was accomplished.

B1: PLTetO1: PLteto-1 promoter, sequence SEQ ID NO: 34, relative to which the mutated promoters are defined (nucleic acid)
DNA: CAATTCCGACGTCTAAGAAACCATTATTATCATGACATTAACCTATAAAAATAGGCGTATCACGAGGCCCTTTCGTCTTCACCTCGAGTCCCTATCAGTGATAGAGATTGACATCCCTATCAGTGATAGAGATACTGAGCACATCAGCAGGACGCACTGACC
modifications: mutant sequence of bacteriophage lambda tetO promoter
- Promoter Strength (gfp; P from Equation 1, pZE-promoter-gfp(ASV) plasmid, M9G/CAA medium, exponential phase, duplicate cultures): 145,806.85 relative fluorescence units per absorbance unit per hour
- Average Promoter Metric (gfp; average of the scaled mRNA and fluorescence data): 0.8685
- Cm MIC (CAT): 338 µg/mL
- Relative mRNA (gfp transcript): 1
